The values below come from patent US20220204643A1 (published 2022).

Assay [1] concerns the target T1, S100 calcium binding protein B (human, UniProt P04271 2-92).
T1 construct: HuProt array protein, full-length recombinant from yeast; also called S100B
T1 sequence: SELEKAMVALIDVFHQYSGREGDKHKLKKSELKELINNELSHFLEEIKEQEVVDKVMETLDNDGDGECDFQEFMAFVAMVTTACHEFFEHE

Assay [2] has as its target T2, ankyrin repeat domain 53, transcript variant 2 (human).
T2 construct: HuProt array protein, full-length recombinant from yeast; also called ANKRD53
T2 chain: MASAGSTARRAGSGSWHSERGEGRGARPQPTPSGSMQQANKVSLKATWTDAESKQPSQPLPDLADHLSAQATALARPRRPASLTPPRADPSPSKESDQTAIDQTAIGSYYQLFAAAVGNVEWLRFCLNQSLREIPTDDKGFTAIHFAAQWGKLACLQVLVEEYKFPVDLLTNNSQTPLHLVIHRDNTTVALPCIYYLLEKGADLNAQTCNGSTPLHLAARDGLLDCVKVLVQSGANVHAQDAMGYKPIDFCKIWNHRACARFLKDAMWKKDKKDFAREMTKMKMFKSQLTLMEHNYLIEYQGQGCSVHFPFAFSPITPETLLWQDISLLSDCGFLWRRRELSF

For assay [3], the target named is aldo-keto reductase family 1 member B, transcript variant 1 (human, UniProt P15121 2-316).
In assay [4] the target is T3, geminin DNA replication inhibitor, transcript variant 1 (human, UniProt O75496 1-209).
T3 construct: on protein array; also called GMNN
T3 sequence: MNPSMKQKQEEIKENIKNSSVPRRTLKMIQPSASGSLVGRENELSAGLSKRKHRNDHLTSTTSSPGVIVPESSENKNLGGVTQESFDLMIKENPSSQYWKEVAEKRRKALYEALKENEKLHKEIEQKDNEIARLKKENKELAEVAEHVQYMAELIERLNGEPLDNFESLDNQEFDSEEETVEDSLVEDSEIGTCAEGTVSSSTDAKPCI
Kind of assay: protein array.

In the next assay the target is T4, DEAD-box helicase 18 (human, UniProt Q9NVP1 1-670).
T4 construct: on protein array; also called DDX18
T4 sequence: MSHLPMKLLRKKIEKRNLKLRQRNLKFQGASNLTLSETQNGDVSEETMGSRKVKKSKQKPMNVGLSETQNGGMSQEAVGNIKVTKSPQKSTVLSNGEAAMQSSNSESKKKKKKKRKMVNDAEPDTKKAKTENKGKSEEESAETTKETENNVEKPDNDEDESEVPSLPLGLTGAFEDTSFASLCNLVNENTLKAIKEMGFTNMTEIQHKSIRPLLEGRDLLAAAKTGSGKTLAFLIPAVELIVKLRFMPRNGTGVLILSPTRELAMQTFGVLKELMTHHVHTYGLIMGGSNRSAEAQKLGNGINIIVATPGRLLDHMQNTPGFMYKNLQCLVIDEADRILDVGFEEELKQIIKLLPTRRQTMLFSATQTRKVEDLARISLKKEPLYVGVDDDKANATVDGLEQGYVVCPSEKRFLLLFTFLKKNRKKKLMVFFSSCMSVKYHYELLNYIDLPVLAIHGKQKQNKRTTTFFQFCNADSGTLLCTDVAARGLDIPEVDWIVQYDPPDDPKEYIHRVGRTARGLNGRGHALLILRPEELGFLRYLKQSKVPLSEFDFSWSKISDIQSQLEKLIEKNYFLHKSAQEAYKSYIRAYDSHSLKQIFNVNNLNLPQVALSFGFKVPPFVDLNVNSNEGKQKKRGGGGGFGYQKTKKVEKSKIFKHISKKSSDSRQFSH
In words: protein array.

The target in assay [5] is T5, syntaxin 1A, transcript variant 1 (human, UniProt Q16623 1-288).
T5 construct: on protein array; also called STX1A
T5 sequence (Q16623 whole entry, change not shown): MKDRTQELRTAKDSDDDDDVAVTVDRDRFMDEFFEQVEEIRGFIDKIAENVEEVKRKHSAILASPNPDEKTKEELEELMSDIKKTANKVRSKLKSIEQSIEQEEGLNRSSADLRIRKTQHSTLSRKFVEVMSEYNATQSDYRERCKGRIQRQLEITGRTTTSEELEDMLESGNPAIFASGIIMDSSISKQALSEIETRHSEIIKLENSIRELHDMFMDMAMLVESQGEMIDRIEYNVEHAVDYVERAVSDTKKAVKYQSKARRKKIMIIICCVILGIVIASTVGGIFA
In words: protein array.

Assay [6] has as its target T6, aarF domain containing kinase 5 (human, UniProt Q3MIX3 1-580).
T6 construct: HuProt array protein, full-length recombinant from yeast; also called ADCK5

Assay [7] concerns the target T7, proliferating cell nuclear antigen, transcript variant 1 (human, UniProt P12004 1-261).
T7 construct: HuProt array protein, full-length recombinant from yeast; also called PCNA

Assay [8] concerns the target T8, dynein axonemal assembly factor 3, transcript variant 3 (human, UniProt Q8N9W5 1-541).
T8 construct: HuProt array protein, full-length recombinant from yeast; also called DNAAF3
T8 sequence: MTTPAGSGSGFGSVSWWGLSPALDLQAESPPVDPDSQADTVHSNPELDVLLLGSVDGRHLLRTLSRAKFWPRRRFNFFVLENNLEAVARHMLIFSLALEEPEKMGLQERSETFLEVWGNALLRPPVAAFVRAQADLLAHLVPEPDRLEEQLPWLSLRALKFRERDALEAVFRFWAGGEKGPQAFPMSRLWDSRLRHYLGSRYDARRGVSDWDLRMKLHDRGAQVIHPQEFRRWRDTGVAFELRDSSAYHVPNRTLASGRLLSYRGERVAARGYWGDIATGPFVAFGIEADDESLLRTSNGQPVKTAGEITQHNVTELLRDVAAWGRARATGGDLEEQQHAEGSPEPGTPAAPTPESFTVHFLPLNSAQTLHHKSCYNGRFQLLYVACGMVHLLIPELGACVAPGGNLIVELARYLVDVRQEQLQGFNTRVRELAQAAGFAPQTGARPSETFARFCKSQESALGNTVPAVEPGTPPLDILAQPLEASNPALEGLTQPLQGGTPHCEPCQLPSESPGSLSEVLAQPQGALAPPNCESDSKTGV

The target in assay [9] is T9, CDP-diacylglycerol synthase 1 (human, UniProt Q92903 1-461).
T9 construct: HuProt array protein, full-length recombinant from yeast; also called CDS1
T9 sequence: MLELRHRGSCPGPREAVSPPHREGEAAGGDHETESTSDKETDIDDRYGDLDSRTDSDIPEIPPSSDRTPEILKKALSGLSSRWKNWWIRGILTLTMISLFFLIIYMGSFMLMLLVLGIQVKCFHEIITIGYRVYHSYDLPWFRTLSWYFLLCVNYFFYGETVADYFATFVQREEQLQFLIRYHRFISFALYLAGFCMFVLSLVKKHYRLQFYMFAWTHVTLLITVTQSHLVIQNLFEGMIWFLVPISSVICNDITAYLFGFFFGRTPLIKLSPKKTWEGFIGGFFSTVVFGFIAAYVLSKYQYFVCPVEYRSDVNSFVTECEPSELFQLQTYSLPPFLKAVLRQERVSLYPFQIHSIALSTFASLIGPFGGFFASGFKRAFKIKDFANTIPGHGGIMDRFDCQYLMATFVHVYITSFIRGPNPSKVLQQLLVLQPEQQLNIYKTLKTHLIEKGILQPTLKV

Assay [10] has as its target T10, checkpoint kinase 2, transcript variant 3 (human).
T10 construct: HuProt array protein, full-length recombinant from yeast; also called CHEK2
T10 chain: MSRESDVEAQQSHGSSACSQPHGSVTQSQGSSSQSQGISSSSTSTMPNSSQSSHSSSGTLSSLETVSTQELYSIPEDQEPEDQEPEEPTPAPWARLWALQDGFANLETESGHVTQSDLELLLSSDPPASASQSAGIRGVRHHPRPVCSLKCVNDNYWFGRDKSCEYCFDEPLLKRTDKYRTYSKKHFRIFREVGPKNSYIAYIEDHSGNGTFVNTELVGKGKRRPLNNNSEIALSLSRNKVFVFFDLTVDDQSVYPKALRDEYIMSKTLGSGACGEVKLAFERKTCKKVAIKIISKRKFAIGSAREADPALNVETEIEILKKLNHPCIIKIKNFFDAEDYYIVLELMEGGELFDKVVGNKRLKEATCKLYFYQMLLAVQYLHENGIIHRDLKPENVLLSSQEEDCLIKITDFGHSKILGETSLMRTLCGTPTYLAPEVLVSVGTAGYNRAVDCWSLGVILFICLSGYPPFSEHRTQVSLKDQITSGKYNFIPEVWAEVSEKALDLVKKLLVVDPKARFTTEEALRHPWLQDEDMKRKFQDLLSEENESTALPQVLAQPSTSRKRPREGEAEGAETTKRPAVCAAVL

T6 sequence (Q3MIX3 other isoform, or with tags, fused parts or gaps limits assumed): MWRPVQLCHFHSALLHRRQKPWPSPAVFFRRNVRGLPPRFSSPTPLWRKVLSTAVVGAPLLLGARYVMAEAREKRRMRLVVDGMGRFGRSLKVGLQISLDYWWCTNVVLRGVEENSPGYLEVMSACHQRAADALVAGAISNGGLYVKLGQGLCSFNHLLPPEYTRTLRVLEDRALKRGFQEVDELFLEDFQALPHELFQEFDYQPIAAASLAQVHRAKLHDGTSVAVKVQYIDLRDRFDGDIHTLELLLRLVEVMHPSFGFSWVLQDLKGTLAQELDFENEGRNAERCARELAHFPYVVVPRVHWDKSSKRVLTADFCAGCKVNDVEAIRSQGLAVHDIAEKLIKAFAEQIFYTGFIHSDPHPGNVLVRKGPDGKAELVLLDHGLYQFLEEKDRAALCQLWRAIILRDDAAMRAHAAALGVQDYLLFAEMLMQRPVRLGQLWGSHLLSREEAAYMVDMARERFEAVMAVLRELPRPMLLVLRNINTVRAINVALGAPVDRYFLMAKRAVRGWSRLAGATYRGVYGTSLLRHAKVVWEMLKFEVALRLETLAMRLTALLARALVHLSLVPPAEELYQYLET
T7 sequence (P12004 whole entry, change not shown): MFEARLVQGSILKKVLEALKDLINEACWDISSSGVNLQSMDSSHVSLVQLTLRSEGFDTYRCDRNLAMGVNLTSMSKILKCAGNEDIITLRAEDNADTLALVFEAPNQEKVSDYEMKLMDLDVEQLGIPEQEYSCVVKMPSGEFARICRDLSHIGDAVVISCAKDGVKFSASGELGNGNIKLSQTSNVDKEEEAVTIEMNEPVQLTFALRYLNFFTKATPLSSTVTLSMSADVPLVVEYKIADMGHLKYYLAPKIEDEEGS

B1: TKIC1012 (antibody, V domains shown)
VH: VVQLVESGGGLVQPGGSLRLSCAASGFSFSTYWMSWVRQAPGKGLEWVANIKQDGSEKHYVDSVKGRFTISRDNAKNSLYLQMNSLRAEDTAMYYCARRAYSFDYWGQGTLVTVSS
VL: DIQMTQSPSTLSASVGDKVTITCRASQSVGSWLAWYQQKPGKAPKLLISVASSLESGVPSRFSGSGSGTEFTLTVSSLQPDDFATYYCQQYNSYSWTFGQGTKVELKR
notes: detected with anti-human IgG Fc
For the molecule B1, the binding result in assay [1] is given as “binds”.

B2: TKIC1019 (antibody, V domains shown)
VH: QLQLQESGPGLVKPSETLSLTCTVSDVSIISSFYYWGWIRQPPGKGLEWIGSVYYSGSTSYNPSLKSRVTISADTSKAHFSLNLRSVTAADTAVYYCVSRGPLGGAAAGPDYWGQGALVIVSS
VL: VSSELTQDPAVSVALGQTVRITCQGDSLRSYYATWYQQKPGQAPLLVIFDKDKRPSGIPDRFSGSSSGNTASLTITGAQPEDEAVYYCNSRDSSAHDHLLFGGGTTLTVLG
notes: as for B1
In the case of B2, the binding result in [2] was “binds”.

B3: TKIC1006 (antibody, V domains shown)
VH: QVQLVQSGAEVKKPGSSVKVSCKTSGGTFSSYTISWVRQAPGQGPEWMGRIIPILNITNYAQKFQGRVTITADKSTSTTYMEMGSLRSEDTAVYFCARSFYGSGLQWGQGTLVTVSS
VL: EIVLTQSPGTLSLSPGERATLSCRASQSVSSSYLVWYQQKAGQAPRLLIYGASSRATGISDRFSGSGSGTDFTLTISRLEPEDFAVYYCQHFRSSPPTYTFGQGTKLEIKR
notes: as for B1
B3: the binding result in [3] is “binds”.

B4: TBRE1027 (antibody, V domains shown)
VH: EVQLLESGGGLVQPGGSLRLSCAASGFTFSSYAMSWVRQAPGKGLEWVSTISGSGHSTYYADSVKGRFTISRDNSKNTLYLQMNSLRAEDTAVYYCAKSTLGGGFDFWGQGTLVTVSS
VL: DIQMTQSPFSLSASVGDRVTITCRASQSISSYLNWYQQKPGKAPKLLIYAASSLQSGVPSRFSGSGSGTDFTLTISSLQPEDFATYYCHQSYSTSLTFGGGTKVEIKR
notes: VH/VL only
With B4, the binding result (in [4]; with DEAD-box helicase 18; in [5]) was “binds” each time.

B5: TKIC1002 (antibody, V domains shown)
VH: PVQLQESGPGLVKPSETLSLTCTVSGGSISSYYWSWIRQPPGKGLEWIGYLFYSGSTNYNPSLKSRVTISVDTSKNQFSLKLGSVTAADTAVYYCARHRIFGLDVWGQGTTVTVSS
VL: EIVLTQSPGTLSLSLGERATLSCRASQSVSGSHLAWYQQKPGQAPRLLIYDASSRATGIPDRFSGSGSGTEFTLTISRLEPEDFAVYYCQQYGSSPLWFGQGTKVEIK
notes: as for B1
Take B5: the binding result in assay [6] is reported as “binds”.

B6: TKIC1007 (antibody, V domains shown)
VH: GVDLVESGGGLVKPGGSLRLSCAASGFSFSRYNINWVRQAPGKGLEWVSSISSTSNYIYYADSVKGRFTISRDNAKNSLYLQMNSLRAEDTAVYYCARAMGGYTYYLDDWGQGTLVTVSS
VL: QSALTQPASVSGSPGQSITISCTGTSSDVGLYNFVSWYQQHPGKAPKLMIFDVNNRPSGVSNRFSGSKSDNTASLTISGLQAEDEADYYCSSYSRTTTLVFGGGTKVTVLG
notes: as for B1
As to B6, the binding result in assay [7] is on record as “binds”.

B7: THNS1014 (antibody, V domains shown)
VH: HVQLLQSGPGLVKPSQTLSLTCAISGDSVSSTSGAWNWIRQSPSRGLEWLGRTYYRSQWMNDYAESVRSRITINPDTSKNQFSLQLKSVTPEDTAVYYCTRGWAFTSSDWGQGTQVTVSS
VL: EIVLTQSPGTLSLSPGERATLSCRASQSFDGKSLAWYQQKPGQTPRLLVYGASSRATGIPDRFGGSGSGTDFTLTISRLESEDFAVYFCQQYAYVPITFGQGTRLERKR
notes: as for B1
As to B7, the binding result in assay [8] and in assay [9] was “binds” in each case.

B8: TKIC1013 (antibody, V domains shown)
VH: EVQLVESGGGLVQPGGSLRLSCAASGFTFNNYWMHWVRQAPGKGLVWVSRISSDGSTTASADSVKGRFTISRDNAKNTLFLQMNSLRAEDTAVYYCAREGAPDDYGDSGTAFDIWGQGTTVTVSS
VL: DIQLTQSPSFLSASVGDRVTITCRASQDISSFLAWYQQKPGKAPDLLIYAASTLQSGVPSRFSGSGSGTEFTLTISSLQPEDFAAYYCQHLTSFPYTFGQGTKLEIKR
notes: as for B1
In the case of B8, the binding result in assay [10] was “binds”.
